± gives the uncertainty stated by the source.
experiment: amyloid nucleation score (Sup35N fusion, yeast selection) (log enrichment); library NNK1; higher = more nucleation; inactive = no reads after selection
Outline: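 Peptides of 20 random codons fused to Sup35N were expressed in psi-negative yeast, induced 24 hours with 100 μM copper sulfate, then grown 7 days at 30°C on medium lacking adenine and uracil. Input and output plasmid inserts were Illumina-sequenced. Nucleation score is the DiMSum log enrichment of output over input reads, centred on the mode score of non-aggregating sequences, excluding sequences with under 100 input reads. Random libraries had three technical output replicates.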

Substance	amyloid nucleation score
WGIFSMYHWRYAVRDRSMHS	inactive
PRTYMIRNWKSTNNSLASPK	-1.09 ± 1.5
ICLYGACYFGVVWSKGGPGK	-0.634 ± 0.32
TKALLQEVPIT	0.345 ± 1.2
YNLDSLLIWWVIDC	-0.22 ± 1.1
IVGMASRCRGFR	1.11 ± 0.71
ALKFPMWDSVEYGDCVGSLI	inactive
LTNNVYSYVWILSSARISIV	0.87 ± 0.22
SSYGKFDGKCLQHM	-0.157 ± 0.76
RAKSGLMNGDGYRNVAQGDD	0.155 ± 0.43
FLSRFLMVRTRSAASVSAYE	-0.204 ± 0.39
DMPTS	0.45 ± 0.75
YHWILKSCLWMVWSSVYLPI	-0.663 ± 1.7
RIANQ	-0.086 ± 0.51
YNWYPEWLCYIFRTKQVVGT	0.382 ± 0.45
MNGSNRSCLFFCIGCVMPAW	7.5 ± 0.081
CWFANRSLPVQIPRVW	-0.394 ± 0.48
SFDLGYPIFCKYTRT	0.576 ± 0.52
VRVVSTSRILFHGFFRNNKG	0.567 ± 0.33
GKVAPFRDSGNIIADGNIHE	-0.219 ± 0.47
VSNFIGVFVAVSWRYDDLCF	0.324 ± 1.2
SLDVILVPMCTFCRGMAYCS	0.457 ± 1.1

Substance	amyloid nucleation score
VYSEVSFDF	inactive
FVTDCLHYRRTWQLGC	0.419 ± 0.28
FGSFVFPCYAQPELIPFNLY	0.119 ± 0.72
KDQTTYMDCFV	0.101 ± 0.49
YLCKVRACTRKSQSLLCGAS	0.678 ± 0.65
MLKQMSSLGREEIYVF	-0.314 ± 0.99
LDNRCKIRMVMMHSPRALRV	0.893 ± 0.81
TLLNDIFLLCCDSTSNDLMC	1.56 ± 0.43
TRRHKYFEWD	-0.285 ± 0.8
DVDYLYPLYLVAGFMTNVRK	0.535 ± 0.25
DTNFYLFMTHG	0.244 ± 1
APSAVS	0.876 ± 0.53
SLFPVTVRKDCCLT	-0.434 ± 0.39
WMEVHWGGNVSLDSSYMELF	-0.044 ± 1.1
AKSKVLWESSVRQRS	-0.04 ± 0.62
RPPCCKWRDRRCTWGIS	0.017 ± 0.51
LYSKGIPMACAQVVVYLNER	6.49 ± 0.055
YRWVFKCRCRSPGGESKSSR	5.9 ± 0.097
VRYVNRLKAHALDPKLKTL	-0.18 ± 0.62
RGYAVNAGYSVCMYWLGTLL	0.695 ± 0.53
TSVNMVIYILLVNFMKFLVG	1.37 ± 0.45
KVCFPY	-1.03 ± 0.4

Substance	amyloid nucleation score
GKWPRRSW	0.376 ± 1.1
DHMRYSTRRWQYPTSVVLSG	0.543 ± 0.25
MLKRVVVLLRPSVRGRVDRV	-0.11 ± 0.28
ELDNCARLGADCKGLNAGRS	inactive
HCMGRACPHS	5.11 ± 0.11
CGQLACVEPNWLSIKVMFRN	inactive
WACMWAQSPYGAFFIVSMED	-0.223 ± 0.38
MSTVFADLR	-0.292 ± 0.29
VSRLRSDWNL	1.43 ± 0.3
LSIRNTSTSRITTLFLGL	1.88 ± 0.4
PFNQLDFTVAYYLSCAH	-0.482 ± 0.63
VNYTTSQSRRDFPSNRSQSG	0.715 ± 0.83
GTTLTDSVCYRGLNFPRLY	-0.435 ± 1.9
RWSVSINWTRSEEHDFRNCV	1.37 ± 0.43
VVTRYL	0.403 ± 0.36
GYFVYYFLFIYCVFRVFSTL	4.82 ± 0.12
SRAINVSVMWVRFS	2.81 ± 0.13
KSLVVACDVYSNALLRVMFR	-0.291 ± 0.26
SFVSYYLLS	-1.09 ± 1.9
LFLNTNSRKYTKMDTILILS	-0.359 ± 0.4
SRLTFVVVWDSSVVHIRMTG	3.46 ± 0.12
SLYGYCLYARMCTASSKKLI	1.09 ± 0.28

Substance	amyloid nucleation score
SWYLMIKVIETVSGVTGWVG	2.39 ± 0.12
NFIRKPFGFIY	-0.282 ± 1.7
HNWSCQVHRDINLDRGAKES	1.79 ± 0.4
GSRYLGTPFRDIMLHVAIRW	1.08 ± 0.57
SSFRKTLLMVIYARNEGCMS	0.471 ± 0.97
MNRYFFYLIRVFLRGYH	-0.094 ± 0.64
CILVARKAVLNCGGWKRSVR	6.27 ± 0.067
SRLWVFD	0.314 ± 0.79
TYLRKIKKRFPGSRYPSLMG	0.15 ± 0.46
GSDGVCFNKNLNSWIYMLST	0.805 ± 0.64
HNGDCMITACNTGVLAGYIS	1.88 ± 0.26
NWLTTQNI	-0.371 ± 0.42
YNLYS	-0.626 ± 1.1
TRLSMLIYALTGNVMSGSCV	0.505 ± 0.46
YWRCCQVCRLRMDPQYFPDG	-0.358 ± 0.69
YWIDR	-0.281 ± 0.42
WFSINIGKMGARVLSVGQDG	inactive
LHSWSVAILIHYKMRD	-0.084 ± 0.27
LFRLYTEITGRMRVTKVKVV	0.641 ± 0.69
CVWVKGHSRCLTTSLVRRSR	-0.022 ± 0.42

Source: the supplement of paper PMC12042874
